Measurements from US12065471B2, “B*44 restricted peptides for use in immunotherapy against cancers and related methods” (Immatics Biotechnologies GmbH, priority 2018, dated 2024).

Molecular target: HLA-B*44:05 (Homo sapiens, UniProt P01889, A223V/A65T/A93T/A95T/D201E/D98Y/E176V/E187L/E204Q/E69K/G107R/H137Y/K202T/L105A/L119I/N104T/N87E/Q56L/Q94N/R106L/R155S/R180D/S101N/S121R/S35A/S48T/T118I/V36M/W191S/Y91S)
Assay: MHC binding assay (UV-ligand exchange, β2m ELISA, peptide exchange yield)
Conditions: binding to HLA-B*44:05
Summary of the method: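 Binding is read as exchange yield, i.e. stabilized complex remaining after UV cleavage of a photolabile ligand in the presence of the candidate peptide. Streptavidin-captured monomers (100-fold dilution) are probed with HRP-anti-β2m, 1h at 37° C, TMB, A450. Standard curve: HLA-A*02:01/MLA-001 monomers at 15-500 ng/ml.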

Peptide exchange (MHC class I binding score, peptide exchange yield) | Substance
+++ (>50 = +++) | 345 (AEYQAAILHL; listed as Homo sapiens) [compound 345]
++ (>20% = ++) | 346 (EEIENLQAQF; listed as Homo sapiens) [compound 346]
+++ (>50 = +++) | 347 (LENPHVQSV; listed as Homo sapiens) [compound 347]
++++ (>75% = ++++) | 348 (SEVLLTSISTF; listed as Homo sapiens) [compound 348]
++++ (>75% = ++++) | 349 (LEWQHPSSW; listed as Homo sapiens) [compound 349]
+++ (>50 = +++) | 350 (EEMLENVSL; listed as Homo sapiens) [compound 350]
++ (>20% = ++) | 351 (EEGRVYVY; listed as Homo sapiens) [compound 351]
+++ (>50 = +++) | 352 (QEDELVKIRKY; listed as Homo sapiens) [compound 352]
++++ (>75% = ++++) | 353 (AETEEGIYW; listed as Homo sapiens) [compound 353]
+++ (>50 = +++) | 354 (TEIMEKTTL; listed as Homo sapiens) [compound 354]
++ (>20% = ++) | 355 (SETSTGTSV; listed as Homo sapiens) [compound 355]
++ (>20% = ++) | 356 (TEAVLNRY; listed as Homo sapiens) [compound 356]
+++ (>50 = +++) | 357 (AELMDKPLTF; listed as Homo sapiens) [compound 357]
+++ (>50 = +++) | 358 (TEFHGGLHY; listed as Homo sapiens) [compound 358]
+++ (>50 = +++) | 359 (NEFRRKLTF; listed as Homo sapiens) [compound 359]
++++ (>75% = ++++) | 360 (DEMENLLTY; listed as Homo sapiens) [compound 360]
++ (>20% = ++) | 361 (EDASLMGLY; listed as Homo sapiens) [compound 361]
+++ (>50 = +++) | 362 (SEVEYINKY; listed as Homo sapiens) [compound 362]

Peptide exchange (MHC class I binding score, peptide exchange yield) | Substance
+++ (>50 = +++) | 363 (EECDKAFHF; listed as Homo sapiens) [compound 363]
++ (>20% = ++) | 364 (EECDKAYSF; listed as Homo sapiens) [compound 364]
++++ (>75% = ++++) | 365 (NESGKAFNY; listed as Homo sapiens) [compound 365]
+++ (>50 = +++) | 366 (EECGKAFKKF; listed as Homo sapiens) [compound 366]
+++ (>50 = +++) | 367 (TEFAVKLKI; listed as Homo sapiens) [compound 367]
+++ (>50 = +++) | 368 (KEKVPGITI; listed as Homo sapiens) [compound 368]
++++ (>75% = ++++) | 369 (KELEERMLHW; listed as Homo sapiens) [compound 369]
+++ (>50 = +++) | 370 (EEVLLANALW; listed as Homo sapiens) [compound 370]
++++ (>75% = ++++) | 371 (NEIGQELTGQEW; listed as Homo sapiens) [compound 371]
+++ (>50 = +++) | 372 (EEYKFPSLF; listed as Homo sapiens) [compound 372]
++ (>20% = ++) | 373 (REDPIVYEI; listed as Homo sapiens) [compound 373]
+++ (>50 = +++) | 374 (NEAEWQEIL; listed as Homo sapiens) [compound 374]
+++ (>50 = +++) | 375 (HEATFGEKRF; listed as Homo sapiens) [compound 375]
+++ (>50 = +++) | 376 (SESDGIEQL; listed as Homo sapiens) [compound 376]
++ (>20% = ++) | 377 (AEDARGWTA; listed as Homo sapiens) [compound 377]
+++ (>50 = +++) | 378 (QELFLQEVRM; listed as Homo sapiens) [compound 378]
++ (>20% = ++) | 379 (AENRVGKMEA; listed as Homo sapiens) [compound 379]
+++ (>50 = +++) | 380 (EECGKAFRVF; listed as Homo sapiens) [compound 380]

Further lines, the substance ahead of its results:

Substance | Peptide exchange (MHC class I binding score, peptide exchange yield)
314 (EMREERKF; listed as Homo sapiens) [compound 314] | ++ (>20% = ++)
315 (MEQQSQEY; listed as Homo sapiens) [compound 315] | +++ (>50 = +++)
316 (RLWPEPENW; listed as Homo sapiens) [compound 316] | ++ (>20% = ++)
317 (TEFQQIINL; listed as Homo sapiens) [compound 317] | ++++ (>75% = ++++)
318 (SESSSFLKV; listed as Homo sapiens) [compound 318] | +++ (>50 = +++)
319 (YEWEPFAEV; listed as Homo sapiens) [compound 319] | + (>10% = +)
320 (AENPLNIFY; listed as Homo sapiens) [compound 320] | ++++ (>75% = ++++)
321 (AENPLNIFYI; listed as Homo sapiens) [compound 321] | +++ (>50 = +++)
322 (REESDWHYL; listed as Homo sapiens) [compound 322] | +++ (>50 = +++)
323 (SETAVVNVTY; listed as Homo sapiens) [compound 323] | ++++ (>75% = ++++)
324 (QELSSIRQF; listed as Homo sapiens) [compound 324] | +++ (>50 = +++)
325 (AEQEIMKKV; listed as Homo sapiens) [compound 325] | ++++ (>75% = ++++)
326 (RELLDFSSW; listed as Homo sapiens) [compound 326] | ++++ (>75% = ++++)
327 (SEQHSLPVF; listed as Homo sapiens) [compound 327] | +++ (>50 = +++)
328 (HENGVLTKF; listed as Homo sapiens) [compound 328] | ++ (>20% = ++)
329 (SEPQITVNF; listed as Homo sapiens) [compound 329] | +++ (>50 = +++)

Substance | Peptide exchange (MHC class I binding score, peptide exchange yield)
330 (SEHLFGTSY; listed as Homo sapiens) [compound 330] | +++ (>50 = +++)
331 (KELEATKQYL; listed as Homo sapiens) [compound 331] | +++ (>50 = +++)
332 (SEADWLRFW; listed as Homo sapiens) [compound 332] | ++++ (>75% = ++++)
333 (SEGTLPYSY; listed as Homo sapiens) [compound 333] | ++ (>20% = ++)
334 (LEWQNSSSM; listed as Homo sapiens) [compound 334] | +++ (>50 = +++)
335 (SETPTLQGL; listed as Homo sapiens) [compound 335] | +++ (>50 = +++)
336 (QEVNISLHY; listed as Homo sapiens) [compound 336] | ++++ (>75% = ++++)
337 (VEVIPEGAML; listed as Homo sapiens) [compound 337] | +++ (>50 = +++)
338 (AEMKFYVVI; listed as Homo sapiens) [compound 338] | +++ (>50 = +++)
339 (NEVKEIKGY; listed as Homo sapiens) [compound 339] | +++ (>50 = +++)
340 (GELAPSHGL; listed as Homo sapiens) [compound 340] | +++ (>50 = +++)
341 (HELESENKKW; listed as Homo sapiens) [compound 341] | +++ (>50 = +++)
342 (SENKKWVEF; listed as Homo sapiens) [compound 342] | ++ (>20% = ++)
343 (SEFDLEQVW; listed as Homo sapiens) [compound 343] | ++++ (>75% = ++++)
344 (DEIRVFGY; listed as Homo sapiens) [compound 344] | ++ (>20% = ++)
